Measured values as given in the supplement of paper PMC11246515.
± gives the standard deviation of the averaged measurements.

Assay: total protein half-life in vivo (active degradation + dilution); higher = more stable protein
[1] = E. coli NCM3722 delta-clpP delta-lon delta-hslV, growth: N-lim chemostat, doubling time 6 h
[2] = E. coli NCM3722 delta-clpP, growth: N-lim chemostat, doubling time 6 h
[3] = E. coli NCM3722 delta-hslV, growth: N-lim chemostat, doubling time 6 h
[4] = E. coli NCM3722 delta-lon, growth: N-lim chemostat, doubling time 6 h
[5] = E. coli NCM3722 delta-smpB, growth: N-lim chemostat, doubling time 6 h
[6] = wild type E. coli NCM3722, growth: C-lim chemostat, doubling time 3 h
[7] = wild type E. coli NCM3722, growth: C-lim chemostat, doubling time 6 h
[8] = wild type E. coli NCM3722, growth: C-lim chemostat, doubling time 12 h
[9] = wild type E. coli NCM3722, growth: N-lim chemostat, doubling time 6 h
[10] = wild type E. coli NCM3722, growth: N-lim chemostat, doubling time 12 h
[11] = wild type E. coli NCM3722, growth: P-lim chemostat, doubling time 6 h
[12] = wild type E. coli NCM3722, growth: P-lim chemostat, doubling time 12 h

Row | Sequence | total protein half-life in vivo [1] [h] | total protein half-life in vivo [2] [h] | total protein half-life in vivo [3] [h] | total protein half-life in vivo [4] [h] | total protein half-life in vivo [5] [h] | total protein half-life in vivo [6] [h] | total protein half-life in vivo [7] [h] | total protein half-life in vivo [8] [h] | total protein half-life in vivo [9] [h] | total protein half-life in vivo [10] [h] | total protein half-life in vivo [11] [h] | total protein half-life in vivo [12] [h]
1 | MLELLYTALLYLIQPLIWIRLWVRGRKAPAYRKRWGERYGFYRHPLKPGGIMLHSVSVGETLAAIPLVRALRHRYPDLPITVTTMTPTGSERVQSAFGKDVQHVYLPYDLPDALNRFLNKVDPKLVLIMETELWPNLIAALHKRKIPLVIANARLSARSAAGYAKLGKFVRRLLRRITLIAAQNEEDGARFVALGAKNNQVTVTGSLKFDISVTPQLAAKAVTLRRQWAPHRPVWIATSTHEGEESVVIAAHQALLQQFPNLLLILVPRHPERFPDAINLVRQAGLSYITRSSGEVPSTSTQVVVGDTMGELMLLYGIADLAFVGGSLVERGGHNPLEAAAHAIPVLMGPHTFNFKDICARLEQASGLITVTDATTLAKEVSSLLTDADYRSFYGRHAVEVLYQNQGALQRLLQLLEPYLPPKTH [P0AC75] | 5.95 ± 0.12 | 6.64 ± 0.62 | 6.5 ± 0.35 | 6.08 ± 0.49 | 6.219 ± 0.038 | 3.23 ± 0.044 | 6.2 ± 0.5 | 10.6 ± 1.9 | 6.524 ± 0.011 | 13.7 ± 1.2 | 6.317 ± 0.014 | 11.9 ± 0.48
2 | MLERLSWKRLVLELLLCCLPAFILGAFFGYLPWFLLASVTGLLIWHFWNLLRLSWWLWVDRSMTPPPGRGSWEPLLYGLHQMQLRNKKRRRELGNLIKRFRSGAESLPDAVVLTTEEGGIFWCNGLAQQILGLRWPEDNGQNILNLLRYPEFTQYLKTRDFSRPLNLVLNTGRHLEIRVMPYTHKQLLMVARDVTQMHQLEGARRNFFANVSHELRTPLTVLQGYLEMMNEQPLEGAVREKALHTMREQTQRMEGLVKQLLTLSKIEAAPTHLLNEKVDVPMMLRVVEREAQTLSQKKQTFTFEIDNGLKVSGNEDQLRSAISNLVYNAVNHTPEGTHITVRWQRVPHGAEFSVEDNGPGIAPEHIPRLTERFYRVDKARSRQTGGSGLGLAIVKHAVNHHESRLNIESTVGKGTRFSFVIPERLIAKNSD | 6.39 ± 0.09 | 6.38 ± 0.28 | 5.95 ± 1.3 |  | 6.31 ± 0.26 | 3.118 ± 0.019 | 5.82 ± 0.35 | 12.3 ± 1.7 | 6.4435 ± 0.0015 | 12.7 ± 2 | 6.19 ± 0.21 | 12.2 ± 0.24
3 | MLHPRARTMLLLSLPAVAIGIASSLILIVVMKIASVLQNLLWQRLPGTLGIAQDSPLWIIGVLTLTGIAVGLVIRFSQGHAGPDPACEPLIGAPVPPSALPGLIVALILGLAGGVSLGPEHPIMTVNIALAVAIGARLLPRVNRMEWTILASAGTIGALFGTPVAAALIFSQTLNGSSEVPLWDRLFAPLMAAAAGALTTGLFFHPHFSLPIAHYGQMEMTDILSGAIVAAIAIAAGMVAVWCLPRLHAMMHQMKNPVLVLGIGGFILGILGVIGGPVSLFKGLDEMQQMVANQAFSTSDYFLLAVIKLAALVVAAASGFRGGRIFPAVFVGVALGLMLHEHVPAVPAAITVSCAILGIVLVVTRDGWLSLFMAAVVVPNTTLLPLLCIVMLPAWLLLAGKPMMMVNRPKQQPPHDNV |  | 6.28 | 7.8 | 5.98 |  |  |  | 11.1 | 6.78 | 12.5 |  | > 16
4 | MLHTANPVIKHKAGLLNLAEELSNVSKACKIMGVSRDTFYRYRELVAEGGVDAQINRSRRAPNLKNRTDEATEQAVVDYAVAFPTHGQHRASNELRKQGVFISDSGVRSVWLLHNLENLKRRY | 5.09 ± 0.95 |  |  |  |  |  |  |  |  |  |  | 
5 | MLILISPAKTLDYQSPLTTTRYTLPELLDNSQQLIHEARKLTPPQISTLMRISDKLAGINAARFHDWQPDFTPANARQAILAFKGDVYTGLQAETFSEDDFDFAQQHLRMLSGLYGVLRPLDLMQPYRLEMGIRLENARGKDLYQFWGDIITNKLNEALAAQGDNVVINLASDEYFKSVKPKKLNAEIIKPVFLDEKNGKFKIISFYAKKARGLMSRFIIENRLTKPEQLTGFNSEGYFFDEDSSSNGELVFKRYEQR [P0A8I3] | 2.9 ± 0.42 | 2.57 ± 0.31 | 2.665 ± 0.025 | 3.07 ± 0.18 | 2.63 ± 0.37 | 2.66 ± 0.069 | 3.57 ± 0.5 | 6.32 ± 0.39 | 2.53 ± 0.26 | 3.4738 ± 0.0021 | 3.39 ± 0.057 | 6.11 ± 0.75
6 | MLILLGYLVVLGTVFGGYLMTGGSLGALYQPAELVIIAGAGIGSFIVGNNGKAIKGTLKALPLLFRRSKYTKAMYMDLLALLYRLMAKSRQMGMFSLERDIENPRESEIFASYPRILADSVMLDFIVDYLRLIISGHMNTFEIEALMDEEIETHESEAEVPANSLALVGDSLPAFGIVAAVMGVVHALGSADRPAAELGALIAHAMVGTFLGILLAYGFISPLATVLRQKSAETSKMMQCVKVTLLSNLNGYAPPIAVEFGRKTLYSSERPSFIELEEHVRAVKNPQQQTTTEEA |  |  |  |  |  | 1.32 ± 0.061 | 1.57 | 2.1 |  |  |  | 
7 | MLINIGRLLMLCVWGFLILNLVHPFPRPLNIFVNVALIFTVLMHGMQLALLKSTLPKDGPQMTTAEKVRIFLFGVFELLAWQKKFKVKK | 6.84 |  | 7.72 | 6.85 | 6.18 | 3.25 |  |  | 4.21 |  | 6.22 | 12.6
8 | MLIPWQDLSPETLENLIESFVLREGTDYGEHERTLEQKVADVKRQLQCGEAVLVWSELHETVNIMPRSQFRE | 5.2 | 3.21 |  | 4.14 |  |  | 3.93 |  |  |  | 4.61 | 7.98
